Values quoted from earlier work as cited in PMC4404502.

Biological target: Asp11 (position 11, …)
Test: fluorescence
Details: membrane-inserted helix

KKGLLLLLLLDLWLLLLLLLLLKKA [pL(D11) poly-Leu transmembrane model peptide (synthetic construct)]
pKa: 8.7
